In US20100184701A1 (TREVENA, published 2010):

T1: human angiotensin 2 type 1 receptor (human, UniProt P30556 1-359)
T1 sequence (looked up): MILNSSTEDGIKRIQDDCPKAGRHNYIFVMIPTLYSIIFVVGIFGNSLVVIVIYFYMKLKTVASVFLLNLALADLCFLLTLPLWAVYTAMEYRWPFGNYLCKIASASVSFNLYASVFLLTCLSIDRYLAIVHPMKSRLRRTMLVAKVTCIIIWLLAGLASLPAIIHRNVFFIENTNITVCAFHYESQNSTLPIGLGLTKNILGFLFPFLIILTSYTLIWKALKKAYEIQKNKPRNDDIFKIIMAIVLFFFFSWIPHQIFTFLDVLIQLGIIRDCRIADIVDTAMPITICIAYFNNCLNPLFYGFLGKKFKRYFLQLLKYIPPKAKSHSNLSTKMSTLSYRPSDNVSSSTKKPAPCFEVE

T2: rat angiotensin 2 type 1 receptor (rat, UniProt P25095 1-359)
T2 sequence (looked up): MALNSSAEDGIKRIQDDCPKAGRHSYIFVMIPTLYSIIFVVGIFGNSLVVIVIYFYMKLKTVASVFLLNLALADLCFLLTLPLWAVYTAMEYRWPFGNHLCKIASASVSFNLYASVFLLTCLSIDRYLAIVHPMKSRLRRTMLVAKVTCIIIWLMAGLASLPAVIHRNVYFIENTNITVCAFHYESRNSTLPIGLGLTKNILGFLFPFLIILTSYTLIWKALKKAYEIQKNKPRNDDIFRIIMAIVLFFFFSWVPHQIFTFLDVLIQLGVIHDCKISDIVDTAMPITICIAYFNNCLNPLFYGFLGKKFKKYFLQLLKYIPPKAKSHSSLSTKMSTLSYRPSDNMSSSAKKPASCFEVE


What was measured:
[1] = target: T1, human angiotensin 2 type 1 receptor; assay: cell-based or functional assay
[2] = target: T2, rat angiotensin 2 type 1 receptor; assay: cell-based or functional assay

Row | IP One EC50 (M) [1] [M] | b-arrestin2 Max (%) [1] [%] | IP One EC50 (M) [2] [M] | b-arrestin2 EC50 [2] [µM] | b-arrestin2 Max (%) [2] [%] | b-arrestin2 EC50 [1] [µM] | IP One Max (%) [1] [%] | IP One Max (%) [2] [%] | Binder
1 | > 1e-05 | 30.6 | > 1e-05 | 10 | 58.5 |  |  |  | ERVYFHP (N-Me-Glu (N-methyl-L-glutamic acid) at 1; C-terminal amide (NH2)) [SEQ ID NO: 66]
2 | > 1e-05 | 38.3 | > 1e-05 |  | 60.6 |  |  |  | ARVYIHPA (NM-D-Ala (N-methyl-D-alanine) at 1; D-Ala at 8) [SEQ ID NO: 82]
3 | > 1e-05 | 19.5 | > 1e-05 |  | 27.8 | 1.4 |  |  | ERVYYHP (C-terminal amide (NH2)) [SEQ ID NO: 59]
4 |  | 42.1 |  |  | 64.4 |  | 10 | 35.3 | DRVYYHP (C-terminal amide (NH2)) [SEQ ID NO: 57]
5 | > 1e-05 | 48.7 |  | 0.26 | 81.1 | 0.33 |  | 9.94 | DRVYYHP (D-Asp at 1; C-terminal amide (NH2)) [SEQ ID NO: 58]
6 | > 1e-05 | 43.4 | > 1e-05 |  | 165 |  |  |  | RVYIHP (C-terminal amide (NH2)) [SEQ ID NO: 13]
7 | > 1e-05 | 20.4 | > 1e-05 |  | 26.9 | 1.2 |  |  | ERVYFHP (C-terminal amide (NH2)) [SEQ ID NO: 64]
8 | > 1e-05 | 37.5 | > 1e-05 | 2.1 | 60.4 | 1.2 |  |  | DRVYYHP (N-Me-Asp (N-methyl-L-aspartic acid) at 1; C-terminal amide (NH2)) [SEQ ID NO: 61]
9 | > 1e-05 | 35.9 | > 1e-05 |  | 50.1 |  |  |  | DRVYFHP (C-terminal amide (NH2)) [SEQ ID NO: 63]
10 | > 1e-05 | 44 | > 1e-05 | 0.18 | 79.3 |  |  |  | ERVYYHP (D-Glu at 1; C-terminal amide (NH2)) [SEQ ID NO: 60]
11 | > 1e-05 | 37.8 | > 1e-05 |  | 67.3 |  |  |  | DRVYFHP (N-Me-Asp (N-methyl-L-aspartic acid) at 1; C-terminal amide (NH2)) [SEQ ID NO: 65]
12 | > 1e-05 | 24.7 | > 1e-05 |  | 44.2 |  |  |  | ERVYYHP (N-Me-Glu (N-methyl-L-glutamic acid) at 1; C-terminal amide (NH2)) [SEQ ID NO: 62]
